The text below walks through data of patent publication US20090031441A1 (NATIONAL UNIVERSITY CORPORATION NAGOYA UNIVERSITY, published 2009).

The target in this assay is T1, GAI (Arabidopsis DELLA protein), yeast two-hybrid prey in pGADT7 AD vector (Arabidopsis, UniProt Q9LQT8 1-533).
T1 construct: also called AtDELLA
T1 sequence (looked up): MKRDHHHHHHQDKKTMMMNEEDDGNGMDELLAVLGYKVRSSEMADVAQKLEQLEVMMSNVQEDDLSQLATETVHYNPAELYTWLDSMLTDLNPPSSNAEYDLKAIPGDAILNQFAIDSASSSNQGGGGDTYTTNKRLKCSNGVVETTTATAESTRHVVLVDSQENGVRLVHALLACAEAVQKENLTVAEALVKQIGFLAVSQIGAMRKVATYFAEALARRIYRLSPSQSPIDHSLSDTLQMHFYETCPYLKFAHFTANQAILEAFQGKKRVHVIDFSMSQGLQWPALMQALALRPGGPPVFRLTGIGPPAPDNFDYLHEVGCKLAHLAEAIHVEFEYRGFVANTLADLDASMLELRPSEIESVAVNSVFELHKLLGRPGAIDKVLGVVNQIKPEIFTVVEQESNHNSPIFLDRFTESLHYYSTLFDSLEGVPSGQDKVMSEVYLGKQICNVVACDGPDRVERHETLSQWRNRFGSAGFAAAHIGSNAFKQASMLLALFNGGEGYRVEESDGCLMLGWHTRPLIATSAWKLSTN
Description: yeast two-hybrid without GA (FIG. 11); member GAI named in the legend of FIG. 11. The method, then:
Arabidopsis has five DELLA proteins (RGA, GAI, RGL1, RGL2, and RGL3; collectively designated AtDELLA; Fleet, C. M., and Sun, T.-P. (2005) Curr. Opin. Plant Biol., 8, 77-85; Dill, A., and Sun, T. (2001) Genetics, 159, 777-785); therefore, there are 15 possible combinations of GID1/DELLA proteins. To verify the positive interactions between AtGID1-AtDELLA, two experiments were conducted using the yeast two hybrid (Y2H) system. In the first experiment (Assay A), a viable colony assay using a defined medium in which only positive clones would survive was carried out. In the second experiment (Assay B), β-galactosidase activity was measured, as reporter gene product of AtGID1-AtDELLA interactions.
BD Matchmaker Two-hybrid System 3 (Clontech, Palo Alto, Calif., USA; now part of Takara Bio) was used in the Y2H experiments. After confirming the PCR products of the AtGID1 genes by sequencing, PCR products were cloned into pGBKT7 DNA-BD shuttle vector to construct bait plasmids. […]
Thus, GA₄ (10⁻⁵ M) was used and added to the medium. […] As described above, all AtGID1-AtDELLA interactions were detected in a GA-dependent manner; however, interactions between AtGID1b and some AtDELLAs were detected, albeit weakly, in the absence of GA (FIG. 11).

B1: AtGID1b (At3g63010), yeast two-hybrid bait in pGBKT7 DNA-BD vector (receptor, not shown: small tags and cut ends)
chain: MAGGNEVNLNECKRIVPLNTWVLISNFKLAYKVLRRPDGSFNRDLAEFLDRKVPANSFPLDGVFSFDHVDSTTNLLTRIYQPASLLHQTRHGTLELTKPLSTTEIVPVLIFFHGGSFTHSSANSAIYDTFCRRLVTICGVVVVSVDYRRSPEHRYPCAYDDGWNALNWVKSRVWLQSGKDSNVYVYLAGDSSGGNIAHNVAVRATNEGVKVLGNILLHPMFGGQERTQSEKTLDGKYFVTIQDRDWYWRAYLPEGEDRDHPACNPFGPRGQSLKGVNFPKSLVVVAGLDLVQDWQLAYVDGLKKTGLEVNLLYLKQATIGFYFLPNNDHFHCLMEELNKFVHSIEDSQSKSSPVLLTP
notes: Bait fusion for the Y2H assays; also called Arabidopsis GID1
As to B1, the binding result is “binds”.
